Data on two variants can be found in paper PMC3853298 (2013).

The chains are these.
B1: mouse decorin core protein, wild type (residues 45-354) [modified: N-linked glycans (four consensus sites for N-linked glycosylation); N-linked glycans (four consensus sites for N-linked glycosylation)] [mouse] / rat tail type I collagen … (parent complex)
chain 1: APLALISMCPYRCQCHLRVVQCSDLGLDKVPWDFPPDTTLLDLQNNKITEIKEGAFKNLKDLHTLILVNNKISKISPEAFKPLVKLERLYLSKNQLKELPEKMPRTLQELRVHENEITKLRKSDFNGLNNVLVIELGGNPLKNSGIENGAFQGLKSLSYIRISDTNITAIPQGLPTSLTEVHLDGNKITKVDAPSLKGLINLSKLGLSFNSITVMENGSLANVPHLRELHLDNNKLLRVPAGLAQHKYIQVVYLHNNNISAVGQNDFCRAGHPSRKASYSAVSLYGNPVRYWEIFPNTFRCVYVRSAIQLGNYKAAA
chain 2: not shown
chain 3: not shown

This assay covers variants of B1. Description: solid-phase binding assay (immobilized collagen, antibody-linked color reaction); decorin 2.5 µM (highest concentration); WT without collagen background est. 0.05; parent: 0.4; read off a plot.
On to chain 1 R111E, for which the response is approximately 0.18 OD 492.
The same measure for chain 1 Y11A, chain 1 R12A, chain 1 Q14A: approximately 0.28 OD 492.
